Laboratory results reported in US8859492.
Where no end group is shown, it is not given here. [ ]: non-standard residue; d: D form. Cha = N[C@@H](CC1CCCCC1)C(=O)O

Key:
[1] = molecular target: HCV protease (hepatitis C virus); assay: apparent binding affinity; method not described
[2] = molecular target: HCV protease (hepatitis C virus); assay: binding/inhibition curve of FIG. 1 (left); method not described
[3] = molecular target: HCV protease (hepatitis C virus); assay: cell-based or functional assay
[4] = molecular target: T1, S. aureus sortase A (S. aureus), Q2FV99; assay: cell-based or functional assay
T1 chain: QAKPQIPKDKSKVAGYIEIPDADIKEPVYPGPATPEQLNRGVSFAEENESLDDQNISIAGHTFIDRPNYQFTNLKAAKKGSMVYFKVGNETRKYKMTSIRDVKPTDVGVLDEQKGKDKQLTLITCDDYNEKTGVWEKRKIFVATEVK

Co-GGH-lisinopril = molecular target: T2, Co-GGH-lisinopril
T2 chain: GGH

Ni-GGH-lisinopril = molecular target: T3, Ni-GGH-lisinopril (not fully specified)
T3 chain: GGH

Cu-GGH-lisinopril = molecular target: T4, Cu-GGH-lisinopril
T4 chain: GGH

[Cu-GGH]^1- = molecular target: T5, [Cu-GGH]^1-
T5 chain: GGH

B1: Cu-GGHGDeLI(Cha)C-CO2^- (peptide)
peptide: GGHGD[dE]LI[Cha]C-OH
modifications: also: Cu complex
[1]
  Ka: 2e+06 M⁻¹
[2]
  Ki: 500 nM
[3]
  kinact: 0.0014 min⁻¹
  rate constant for inactivation kinact, in the presence of ascorbate/O2: < 0.083 h⁻¹

B2: Cu-GGHGLPET (SEQ ID NO: 104) (peptide)
peptide: GGHGLPET
modifications: not checked
[4]
  activity for catalyst concentration of 1 µM: 0.027

B3: Cu-… (SEQ ID NO: 105) (peptide)
peptide: GGHGLPETG
modifications: not checked
[4]
  activity for catalyst concentration of 1 µM: 0.012

B4: Cu-GGHLPET (SEQ ID NO: 102) (peptide)
peptide: GGHLPET
modifications: not checked
[4]
  activity for catalyst concentration of 1 µM: 0.009

B5: Recombinant human somatic ACE (sACE-1: Leu30-Leu1261, with C-terminal His tag) (protein)
chain: LDPGLQPGNFSADEAGAQLFAQSYNSSAEQVLFQSVAASWAHDTNITAENARRQEEAALLSQEFAEAWGQKAKELYEPIWQNFTDPQLRRIIGAVRTLGSANLPLAKRQQYNALLSNMSRIYSTAKVCLPNKTATCWSLDPDLTNILASSRSYAMLLFAWEGWHNAAGIPLKPLYEDFTALSNEAYKQDGFTDTGAYWRSWYNSPTFEDDLEHLYQQLEPLYLNLHAFVRRALHRRYGDRYINLRGPIPAHLLGDMWAQSWENIYDMVVPFPDKPNLDVTSTMLQQGWNATHMFRVAEEFFTSLELSPMPPEFWEGSMLEKPADGREVVCHASAWDFYNRKDFRIKQCTRVTMDQLSTVHHEMGHIQYYLQYKDLPVSLRRGANPGFHEAIGDVLALSVSTPEHLHKIGLLDRVTNDTESDINYLLKMALEKIAFLPFGYLVDQWRWGVFSGRTPPSRYNFDWWYLRTKYQGICPPVTRNETHFDAGAKFHVPNVTPYIRYFVSFVLQFQFHEALCKEAGYEGPLHQCDIYRSTKAGAKLRKVLQAGSSRPWQEVLKDMVGLDALDAQPLLKYFQPVTQWLQEQNQQNGEVLGWPEYQWHPPLPDNYPEGIDLVTDEAEASKFVEEYDRTSQVVWNEYAEANWNYNTNITTETSKILLQKNMQIANHTLKYGTQARKFDVNQLQNTTIKRIIKKVQDLERAALPAQELEEYNKILLDMETTYSVATVCHPNGSCLQLEPDLTNVMATSRKYEDLLWAWEGWRDKAGRAILQFYPKYVELINQAARLNGYVDAGDSWRSMYETPSLEQDLERLFQELQPLYLNLHAYVRRALHRHYGAQHINLEGPIPAHLLGNMWAQTWSNIYDLVVPFPSAPSMDTTEAMLKQGWTPRRMFKEADDFFTSLGLLPVPPEFWNKSMLEKPTDGREVVCHASAWDFYNGKDFRIKQCTTVNLEDLVVAHHEMGHIQYFMQYKDLPVALREGANPGFHEAIGDVLALSVSTPKHLHSLNLLSSEGGSDEHDINFLMKMALDKIAFIPFSYLVDQWRWRVFDGSITKENYNQEWWSLRLKYQGLCPPVPRTQGDFDPGAKFHIPSSVPYIRYFVSFIIQFQFHEALCQAAGHTGPLHKCDIYQSKEAGQRLATAMKLGFSRPWPEAMQLITGQPNMSASAMLSYFKPLLDWLRTENELHGEKLGWPQYNWTPNSARSEGPLPDSGRVSFLGLDLDAQQARVGQWL
Co-GGH-lisinopril
  second order rate constant for cleavage of full length sACE-1 (SDS-PAGE), ascorbate + H2O2: < 1170 M⁻¹ s⁻¹
Ni-GGH-lisinopril
  second order rate constant for cleavage of full length sACE-1 (SDS-PAGE), ascorbate: < 1000 M⁻¹ s⁻¹
Cu-GGH-lisinopril
  second order rate constant for cleavage of full length sACE-1 (SDS-PAGE), H2O2: 250 M⁻¹ s⁻¹
  second order rate constant for cleavage of full length sACE-1 (SDS-PAGE), ascorbate: < 100 M⁻¹ s⁻¹
  second order rate constant for cleavage of full length sACE-1 (SDS-PAGE), ascorbate + H2O2: 1170 M⁻¹ s⁻¹
[Cu-GGH]^1-
  second order rate constant for cleavage of full length sACE-1 (SDS-PAGE), ascorbate + H2O2: < 50 M⁻¹ s⁻¹

B6: Cu-GGHLPETG (SEQ ID NO: 103) (peptide)
peptide: GGHLPETG
modifications: not checked
[4]
  activity for catalyst concentration of 1 µM: 0.017

B7: Cu-GGHGDeLI(Cha)T (peptide)
peptide: GGHGD[dE]LI[Cha]T
modifications: also: Cu complex
[1]
  Ka: 33000 M⁻¹
[3]
  kinact: 0.042 min⁻¹
